According to paper PMC7089606 (Journal of Molecular Biology, 2010):

T1: DmCPD1Bs (D. melanogaster carboxypeptidase D variant 1B short) (Drosophila melanogaster, UniProt P42787)
T1 sequence (P42787 26-435 isoform P42787-7): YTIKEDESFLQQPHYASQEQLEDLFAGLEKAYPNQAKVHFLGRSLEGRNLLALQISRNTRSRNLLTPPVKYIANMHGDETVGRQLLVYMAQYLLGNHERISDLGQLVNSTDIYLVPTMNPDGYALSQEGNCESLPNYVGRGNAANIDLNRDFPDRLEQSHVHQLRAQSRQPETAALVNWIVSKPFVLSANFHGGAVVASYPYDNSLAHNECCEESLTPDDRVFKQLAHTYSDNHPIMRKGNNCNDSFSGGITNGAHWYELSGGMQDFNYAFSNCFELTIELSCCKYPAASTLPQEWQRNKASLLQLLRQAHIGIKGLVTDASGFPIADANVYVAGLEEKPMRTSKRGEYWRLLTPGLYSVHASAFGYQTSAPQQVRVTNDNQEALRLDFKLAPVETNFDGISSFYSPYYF


Legend:
[1] = biological target: T1, DmCPD1Bs (D. melanogaster carboxypeptidase D variant 1B short); experiment: crystal structure at […] Å; assay type: biochemical
[2] = recombinant expression yield in P. pastoris; settings: glycan lost; control: wild type
purified protein = substrate: N=C(N)NCCC[C@H](NC(=O)CNC(=O)c1ccccc1)C(=O)O; experiment: purified protein; settings: Zn2+

Molecule | Ki [1] [nM] | expression_or_secretion [2] | Km (purified protein) [µM] | kcat (purified protein) [s⁻¹] | kcat/Km (purified protein) [M⁻¹ s⁻¹]
N=C(N)NCCSC(CC(=O)O)C(=O)O (stereo not drawn) [GEMSA, 2-guanidinoethyl-mercaptosuccinic acid] | 670 ± 80 |  |  |  | 
DmCPD1Bs (carboxypeptidase D variant 1B short, svr-PF): N269Q |  | decreases |  |  | 
DmCPD1Bs (carboxypeptidase D variant 1B short, svr-PF): N133Q |  | decreases |  |  | 
DmCPD1Bs (D. melanogaster carboxypeptidase D variant 1B short) (Drosophila melanogaster) (protein) YTIKEDESFLQQPHYASQEQLEDLFAGLEKAYPNQAKVHFLGRSLEGRNLLALQISRNTRSRNLLTPPVKYIANMHGDETVGRQLLVYMAQYLLGNHERISDLGQLVNSTDIYLVPTMNPDGYALSQEGNCESLPNYVGRGNAANIDLNRDFPDRLEQSHVHQLRAQSRQPETAALVNWIVSKPFVLSANFHGGAVVASYPYDNSLAHNECCEESLTPDDRVFKQLAHTYSDNHPIMRKGNNCNDSFSGGITNGAHWYELSGGMQDFNYAFSNCFELTIELSCCKYPAASTLPQEWQRNKASLLQLLRQAHIGIKGLVTDASGFPIADANVYVAGLEEKPMRTSKRGEYWRLLTPGLYSVHASAFGYQTSAPQQVRVTNDNQEALRLDFKLAPVETNFDGISSFYSPYYF |  |  | 1112 ± 167 | 38.8 ± 4.1 | 34900
human CPB (hCPB) (Homo sapiens) (protein) ATGHSYEKYNKWETIEAWTQQVATENPALISRSVIGTTFEGRAIYLLKVGKAGQNKPAIFMDCGFHAREWISPAFCQWFVREAVRTYGREIQVTELLDKLDFYVLPVLNIDGYIYTWTKSRFWRKTRSTHTGSSCIGTDPNRNFDAGWCEIGASRNPCDETYCGPAAESEKETKALADFIRNKLSSIKAYLTIHSYSQMMIYPYSYAYKLGENNAELNALAKATVKELASLHGTKYTYGPGATTIYPAAGGSDDWAYDQGIRYSFTFELRDTGRYGFLLPESQIRATCEETFLAIKYVASYVLEHLY |  |  | 485.3 ± 62.5 | 254 ± 11.9 | 523000
